Data on 1 molecule can be found in US20250215403A1, “Compositions and Methods for Cardiac Tissue Regeneration” (Temple University - Of The Commonwealth System Of Higher …, priority 2022, published 2025).

The data set in a line: HPLC measurements of oxidative stress (ROS, GSH/GSSG, NADPH, NADH) in heart post-MI. The format is in vivo, mouse. The method, then: ROS production in heart tissue was measured using HPLC for dihydroethidium (DHE) oxidation products (Magadum A., et al., Circulation. 2020, 141 (15): 1249-1265). Immediately after harvesting hearts, a 20 mg segment of heart tissue was cut into small pieces and incubated with DHE (100 μM) in PBS containing DTPA (100 μM) at 37° C. for 30 min. The sample was washed with PBS/DTPA, extracted with acetonitrile (500 μl) and briefly sonicated (3× 30 sec, 8W). After centrifugation (13,000×g, 10 min at 4° C.), the supernatant was collected and dried under vacuum, and pellets stored at −20° C. in the dark until analysis. Samples were resuspended in 120 μl PBS-DTPA and injected into the HPLC system. The superoxide-specific DHE oxidation product 2-hydroxyethidine (EOH) was quantified by comparison of the peak signal between samples and standard solutions under identical chromatographic conditions, and expressed as EOH/mg tissue.
The level of glutathione (GSH) in heart tissue was measured by an HPLC method with electrochemical detection, as previously described (Magadum A., et al., Circulation. 2020, 141 (15): 1249-1265). Heart samples were homogenized in a 100 mM acetate buffer (pH 5.4, containing 10 μM DTPA). A small aliquot was used to quantify total protein. The remaining sample was deproteinized with 10% TCA, centrifuged at 10,000×g for 5 min at 4° C., the supernatant filtered (0.45 μm) and stored at −80° C. Samples were injected onto a C18 column (Phenomenex C18, 3 μm, 150×4.6 mm) and eluted at 0.5 ml/min using an isocratic mobile phase solution (25 mM NaH2PO4, 1 mM 1-octane sulfonic acid, 6% acetonitrile, pH 2.6, H2O with phosphoric acid). GSH levels were quantified by comparison to standards subjected to the same HPLC conditions. Glutathione disulfide (GSSG) levels were indirectly determined by its enzymatic reduction with glutathione reductase (0.6 U/ml plus 0.2 mg/ml NADPH) for 30 min. The reaction was stopped by adding 5% TCA on ice. The GSH levels were normalized by the amount of protein. GSSG quantification was achieved by the difference between total reduced GSSG to total GSH in each sample.

B1: PSAT1 modRNA: modified mRNA with N1-methylpseudouridine, transcribed in vitro, encoding phosphoserine aminotransferase 1 (ORF SEQ ID NO: 1, RNA SEQ ID NO: 2) (nucleic acid)
chain: AUGGAAGCCACCAAGCAAGUGGUUAACUUUGGGCCCGGGCCUGCCAAGCUGCCACACUCGGUAUUGUUGGAGAUCCAGAAGCAGCUACUAGACUACAGAGGACUCGGCAUCAGUGUGCUCGAAAUGAGUCACAGGUCAUCAGAUUUUGCCAAGAUUAUUGGCAAUACAGAGAAUCUUGUGAGGGAAUUGCUAGCUGUUCCCAACAACUACAAGGUGAUCUUUGUACAAGGAGGUGGGUCUGGCCAGUUCAGUGCUGUCCCCUUAAAUCUGAUUGGCCUGAAAGCUGGAAGGAGUGCUGACUACGUGGUGACCGGAGCUUGGUCAGCUAAGGCUGCGGAAGAAGCCAAGAAGUUUGGAACGGUGAACAUUGUCCACCCUAAACUUGGAAGUUACACAAAAAUUCCAGACCCAAGCACCUGGAACCUCAACCCGGACGCCUCCUAUGUAUACUUCUGUGCAAACGAGACUGUGCACGGGGUGGAGUUUGACUUCGUACCUGACGUCAAGGGAGCGGUGCUGGUCUGUGACAUGUCCUCAAACUUCUUAUCCAGGCCGGUGGAUGUUUCCAAGUUUGGUGUGAUUUUCGCUGGUGCUCAGAAGAAUGUUGGCUCUGCCGGGGUGACGGUGGUGAUUGUCCGGGAUGACCUGCUGGGGUUCUCGCUCAGAGAGUGCCCAUCAGUCCUUGACUACAAAGUGCAGGCUGGGAACAACUCUUUGUAUAACACACCUCCGUGCUUCAGCAUCUACGUCAUGGGCAUGGUCCUGGAAUGGAUCAAGAACAACGGCGGGGCCGCAGCCAUGGAGAAGCUCAGCUCCAUCAAAUCCCAAAUGAUUUAUGAGAUCAUUGAUAAUUCUCAAGGAUUUUAUGUAUGCCCAGUGGAGCGCCAGAAUAGAAGCAGGAUGAACAUCCCAUUUCGCAUUGGCAACGCCAAAGGAGACGAAGCUUUGGAAAAGCGGUUUCUUGACAAGGCGGUAGAACUCAACAUGAUCUCCUUGAAGGGGCACAGGUCAGUGGGAGGCAUUCGUGCCUCUCUGUAUAACGCUGUCACAACCGAAGACGUUGAGAAGCUGGCGGCCUUCAUGAAGAAUUUCUUGGAGAUGCAUCAGCUGUGA
modifications: N1-methylpseudouridine
On to B1, for which the GSH/GSSG ratio result (heart post-MI) is “significantly increased”. Further, the “levels of superoxide and other ROS” value (heart two days post-MI, DHE probe) was “reduced”. Besides, where the note is “two days post-MI”, the NADH level entry is reported as “increased” and the NADPH level result was “increased”.
